“And” between values parts separate entries of the source, which are not always exact repeats. Identical values can stand only once. No end group written: not given here.
What was measured:
[1] = biological target: T1, Pla1RRM (C-terminal RRM domain of Pla1, residues 352-566) (S. pombe, UniProt Q10295 352-566); assay: NMR titration; 1.5-fold molar excess of unlabelled Pla1RRM added to 0.3 mM 15N-labelled GB1-tagged Red1 constructs; 1H,15N-HSQC; 293 K; sodium phosphate pH 6.5, 100 mM NaCl; conditions: both partners purified
T1 construct: Pla1, canonical poly(A) polymerase, S. pombe, C-terminal RRM domain, residues 352-566; also called Pla1 RRM domain; Pla1 CTD; source: E. coli BL21 (DE3) Rosetta2, purified (His-Trap, TEV cleavage, Resource Q, Superdex 200); not shown: His6, N-terminal, cleaved
T1 sequence (looked up): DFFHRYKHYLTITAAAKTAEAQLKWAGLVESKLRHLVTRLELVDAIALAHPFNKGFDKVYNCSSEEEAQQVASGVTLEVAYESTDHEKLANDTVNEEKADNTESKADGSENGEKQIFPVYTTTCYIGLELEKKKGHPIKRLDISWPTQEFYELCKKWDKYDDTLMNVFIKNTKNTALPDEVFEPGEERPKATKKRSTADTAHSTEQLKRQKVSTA

[2] = biological target: T1, Pla1RRM (C-terminal RRM domain of Pla1, …); assay: ITC; control of the competition: Iss1 30-76 titrated into Pla1RRM pre-incubated with a 1.1-fold molar excess of Red1 288-345 W298A/F305A; 25 °C; 20 mM HEPES pH 7.5, 150 mM NaCl, 2 mM BME; conditions: both partners purified
[3] = biological target: T1, Pla1RRM (C-terminal RRM domain of Pla1, …); assay: ITC; Red1 or Iss1 construct in the syringe (400-500 µM) titrated into Pla1RRM (wild type or mutant) in the cell (40-50 µM); 25 °C; 20 mM HEPES pH 7.5, 150 mM NaCl, 2 mM BME; one-binding site model; each independent measurement listed; conditions: both partners purified
[4] = biological target: T2, C-terminal RRM domain of Pla1 (Pla1RRM, residues 352-566), purified (S. pombe, UniProt Q10295 352-566); assay: ITC; MicroCal PEAQ-ITC, 25 °C, 20 mM HEPES pH 7.5, 150 mM NaCl, 2 mM BME; 40-50 µM protein in the cell, 400-500 µM ligand in the syringe; one-binding site model; conditions: both partners purified
T2 construct: canonical poly(A) polymerase Pla1, S. pombe, C-terminal RRM domain, residues 352-566; also called Pla1 CTD; source: E. coli BL21 (DE3) Rosetta2, purified (His-Trap, TEV cleavage, Resource Q, Superdex 200); not shown: His6, N-terminal, cleaved
T2 sequence (looked up): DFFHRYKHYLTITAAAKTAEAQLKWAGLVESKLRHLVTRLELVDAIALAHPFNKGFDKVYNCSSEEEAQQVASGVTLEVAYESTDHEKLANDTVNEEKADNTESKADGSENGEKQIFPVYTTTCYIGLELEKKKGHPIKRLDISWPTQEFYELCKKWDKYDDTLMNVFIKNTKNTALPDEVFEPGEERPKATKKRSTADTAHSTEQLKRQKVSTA

[5] = biological target: T3, Pla1_(EEQE): Pla1RRM with K559/R560/Q561/K562 changed to EEQE (S. pombe, UniProt Q10295 352-566, K559/R560/Q561/K562 to EEQE); assay: as above; conditions: both partners purified
T3 construct: canonical poly(A) polymerase Pla1, S. pombe, RRM domain, residues 352-566 with K559/R560/Q561/K562 to EEQE; source: E. coli BL21 (DE3) Rosetta2, purified; not shown: His6, N-terminal, cleaved
T3 sequence (looked up): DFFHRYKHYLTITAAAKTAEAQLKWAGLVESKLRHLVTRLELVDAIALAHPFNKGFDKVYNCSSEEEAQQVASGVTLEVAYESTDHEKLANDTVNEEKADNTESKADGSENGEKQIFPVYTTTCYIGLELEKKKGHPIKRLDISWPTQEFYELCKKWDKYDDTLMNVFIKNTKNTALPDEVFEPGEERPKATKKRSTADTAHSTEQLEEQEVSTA

[6] = biological target: T4, Pla1EEE: Pla1RRM with K544/K545/R546 changed to EEE (S. pombe, UniProt Q10295 352-566, K544/K545/R546 to EEE); assay: as above; conditions: both partners purified
T4 construct: canonical poly(A) polymerase Pla1, S. pombe, RRM domain, residues 352-566 with K544/K545/R546 to EEE; source: E. coli BL21 (DE3) Rosetta2, purified; not shown: His6, N-terminal, cleaved
T4 sequence (looked up): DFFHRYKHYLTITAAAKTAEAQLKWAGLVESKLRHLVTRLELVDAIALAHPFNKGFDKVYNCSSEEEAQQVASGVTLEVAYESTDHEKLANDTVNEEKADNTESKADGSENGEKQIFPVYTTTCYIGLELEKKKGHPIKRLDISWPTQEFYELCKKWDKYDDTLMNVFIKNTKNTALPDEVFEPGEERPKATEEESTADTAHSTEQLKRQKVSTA

[7] = biological target: T5, Pla1RRM with the charge reversal mutation K368E (S. pombe, UniProt Q10295 352-566, K368E); assay: as above; conditions: both partners purified
T5 construct: canonical poly(A) polymerase Pla1, S. pombe, RRM domain, residues 352-566 with K368E; source: E. coli BL21 (DE3) Rosetta2, purified; not shown: His6, N-terminal, cleaved
T5 sequence (looked up): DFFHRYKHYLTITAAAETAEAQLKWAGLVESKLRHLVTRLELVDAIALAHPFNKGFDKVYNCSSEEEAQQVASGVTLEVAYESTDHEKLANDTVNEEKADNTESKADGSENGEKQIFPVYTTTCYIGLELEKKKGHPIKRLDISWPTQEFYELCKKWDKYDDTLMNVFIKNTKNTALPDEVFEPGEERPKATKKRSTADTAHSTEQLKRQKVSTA

[8] = biological target: T2, C-terminal RRM domain of Pla1 (Pla1RRM, …); assay: ITC; competition: Red1_(288-345) titrated into Pla1RRM pre-incubated with a 1.1-fold molar excess of Iss1_(30-76); 25 °C, 20 mM HEPES pH 7.5, 150 mM NaCl, 2 mM BME; conditions: both partners purified
[9] = biological target: T6, Pla1RRM with the charge reversal mutation K368E (S. pombe, UniProt Q10295 352-566, K368E); assay: ITC
T6 sequence: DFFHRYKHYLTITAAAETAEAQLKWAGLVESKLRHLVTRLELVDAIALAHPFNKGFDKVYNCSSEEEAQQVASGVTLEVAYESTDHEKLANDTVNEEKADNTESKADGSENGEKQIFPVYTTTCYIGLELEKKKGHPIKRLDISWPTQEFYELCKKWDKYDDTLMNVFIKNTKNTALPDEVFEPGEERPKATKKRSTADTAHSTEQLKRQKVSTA

[10] = biological target: T7, Pla1EEE: Pla1RRM with K544/K545/R546 changed to EEE (S. pombe, UniProt Q10295 352-566, K544/K545/R546 to EEE); assay: ITC
T7 sequence: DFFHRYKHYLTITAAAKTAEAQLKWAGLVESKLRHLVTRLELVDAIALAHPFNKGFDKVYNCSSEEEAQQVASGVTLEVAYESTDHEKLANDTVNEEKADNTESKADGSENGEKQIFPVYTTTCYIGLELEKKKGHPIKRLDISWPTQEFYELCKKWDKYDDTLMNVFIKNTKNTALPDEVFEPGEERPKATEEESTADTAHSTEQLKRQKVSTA

[11] = biological target: T8, Pla1_(EEQE): Pla1RRM with K559/R560/Q561/K562 changed to EEQE (S. pombe, UniProt Q10295 352-566, K559/R560/Q561/K562 to EEQE); assay: ITC
T8 sequence: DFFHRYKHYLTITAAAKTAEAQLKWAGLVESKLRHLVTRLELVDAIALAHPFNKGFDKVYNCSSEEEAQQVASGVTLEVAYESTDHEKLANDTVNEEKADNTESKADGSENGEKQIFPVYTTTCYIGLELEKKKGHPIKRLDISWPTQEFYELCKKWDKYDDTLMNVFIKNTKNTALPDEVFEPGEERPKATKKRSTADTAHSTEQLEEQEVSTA

[12] = biological target: T1, Pla1RRM (C-terminal RRM domain of Pla1, …); assay: ITC; competition: Red1 288-345 titrated into Pla1RRM pre-incubated with a 1.1-fold molar excess of Iss1 30-76; 25 °C; 20 mM HEPES pH 7.5, 150 mM NaCl, 2 mM BME; conditions: both partners purified
Pla1RRM EEE = biological target: T9, Pla1RRM EEE (S. pombe, UniProt Q10295 352-566, K544/K545/R546 to EEE); assay: ITC; Red1 or Iss1 construct in the syringe (400-500 µM) titrated into Pla1RRM (wild type or mutant) in the cell (40-50 µM); 25 °C; 20 mM HEPES pH 7.5, 150 mM NaCl, 2 mM BME; one-binding site model; each independent measurement listed; conditions: both partners purified
T9 construct: Pla1, S. pombe, C-terminal RRM domain, residues 352-566; also called Pla1EEE; K544/K545/R546 to EEE; source: E. coli BL21 (DE3) Rosetta2, purified (His-Trap, TEV cleavage, Resource Q, Superdex 200); not shown: His6, N-terminal, cleaved
T9 sequence (looked up): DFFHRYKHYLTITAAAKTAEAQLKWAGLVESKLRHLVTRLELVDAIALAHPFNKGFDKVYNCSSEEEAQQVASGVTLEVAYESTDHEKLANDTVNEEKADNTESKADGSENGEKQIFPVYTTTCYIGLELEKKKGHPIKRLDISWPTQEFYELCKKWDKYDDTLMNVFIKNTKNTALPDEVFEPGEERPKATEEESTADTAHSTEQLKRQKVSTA

Pla1RRM EEQE = biological target: T10, Pla1RRM EEQE (S. pombe, UniProt Q10295 352-566, K559/R560/Q561/K562 to EEQE); assay: as above; conditions: both partners purified
T10 construct: Pla1, S. pombe, C-terminal RRM domain, residues 352-566; also called Pla1_(EEQE); K559/R560/Q561/K562 to EEQE; source: E. coli BL21 (DE3) Rosetta2, purified (His-Trap, TEV cleavage, Resource Q, Superdex 200); not shown: His6, N-terminal, cleaved
T10 sequence (looked up): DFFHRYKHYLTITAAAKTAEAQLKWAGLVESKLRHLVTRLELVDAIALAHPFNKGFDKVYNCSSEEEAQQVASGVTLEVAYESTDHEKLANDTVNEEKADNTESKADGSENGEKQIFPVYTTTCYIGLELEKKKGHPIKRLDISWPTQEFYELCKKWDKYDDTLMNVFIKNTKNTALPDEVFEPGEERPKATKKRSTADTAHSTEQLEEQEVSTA

Pla1RRM K368E = biological target: T11, Pla1RRM K368E (S. pombe, UniProt Q10295 352-566, K368E); assay: as above; conditions: both partners purified
T11 construct: Pla1, S. pombe, C-terminal RRM domain, residues 352-566; source: E. coli BL21 (DE3) Rosetta2, purified (His-Trap, TEV cleavage, Resource Q, Superdex 200); not shown: His6, N-terminal, cleaved
T11 sequence (looked up): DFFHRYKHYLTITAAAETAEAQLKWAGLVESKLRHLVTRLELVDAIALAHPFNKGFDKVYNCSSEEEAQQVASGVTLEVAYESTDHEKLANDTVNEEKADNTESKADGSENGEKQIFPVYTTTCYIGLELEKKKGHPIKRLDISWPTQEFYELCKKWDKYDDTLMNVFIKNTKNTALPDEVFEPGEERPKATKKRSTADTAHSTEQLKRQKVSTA

B1: GB1-tagged Red1 288-322 (domain or fragment, S. pombe)
chain: ISLPLLKQDDWLSSSKPFGSSTPNVVIEFDSDDDG
modifications: not fully specified (N-terminus); also: 15N-labelled
notes: source: E. coli BL21 (DE3), 15N-labelled in M9 minimal medium, purified; not shown: GB1, N-terminal, kept; His6, C-terminal, kept
binding result [1]: binds

B2: Iss1 30-76 (domain or fragment, S. pombe)
chain: VSNAKSPEQASEESDDSDIEFIIETKPGERAEPLGGSIATLGSTRPS
notes: Iss1 (fission yeast orthologue of scFip1), S. pombe, residues 30-76; source: E. coli BL21 (DE3) Rosetta2, purified (His-Trap, TEV cleavage, second IMAC flow-through, Superdex 75); not shown: His-Thioredoxin, N-terminal, cleaved
stoichiometry N [2]: 0.97 and 1
Kd [3]: 2.11 µM and 2.94 µM
stoichiometry N [3]: 1

B3: Red1 residues 288-345 (Pla1 interaction region), purified (domain or fragment, S. pombe, UniProt Q9UTR8 288-345, looked up)
chain: ISLPLLKQDDWLSSSKPFGSSTPNVVIEFDSDDDGDDFSNSKIEQSNLEKPPSNSENG
notes: source: E. coli BL21 (DE3), purified (His-Trap, TEV cleavage, second IMAC, Superdex 75); not shown: GB1, N-terminal, cleaved; His6, C-terminal, kept
Kd [4]: 1.4 µM
fold loss in affinity against wild-type Pla1RRM [5]: ~2 fold
fold loss in affinity against wild-type Pla1RRM [6]: ~7 fold
fold loss in affinity against wild-type Pla1RRM [7]: ~13 fold
KD into the pre-formed Pla1RRM-Iss1_(30-76) complex [8]: 11 µM
Kd [9]: 17.8 µM
Kd [10]: 9.8 µM
Kd [11]: 2.8 µM

B4: Red1 288-345 (domain or fragment, S. pombe)
chain: ISLPLLKQDDWLSSSKPFGSSTPNVVIEFDSDDDGDDFSNSKIEQSNLEKPPSNSENG
notes: as for B3
stoichiometry N [12]: 1.11 and 1.82
Kd (Pla1RRM EEE): 9.43 µM and 9.98 µM
stoichiometry N (Pla1RRM EEE): 0.86 and 0.94
Kd (Pla1RRM EEQE): 3.28 µM and 2.27 µM
stoichiometry N (Pla1RRM EEQE): 1.03 and 0.97
Kd [3]: 1.56 µM and 1.15 µM and 1.37 µM
stoichiometry N [3]: 1.05 and 0.952 and 1.19
Kd (Pla1RRM K368E): 15.3 µM and 20.3 µM
stoichiometry N (Pla1RRM K368E): 0.8 and 1
